The labels stand for the following.
B1: Huntingtin-associated protein 1 (Rattus norvegicus (Rat)), P54256-2 (parent)
chain: MRPKDQVQSSAGDGTGSGDPATGTPTTQPAADPAPEPSAEPKPAPAQGTGSGQKSGSRTKTGGSFCRSRIRGDSDAPWTRYIFQGPYGPRATGLGTGRAEGIWKTPAAYIGRRPGVSGPERAAFIRELQEALCPNPLPRKKITEDDIKVMLYLLEEKERDLNTAARIGQSLVKQNSVLMEENNKLETMLGSAREEILHLRKQVNLRDDLLQLYSDSDDDEEDEEDEEEEEGEEEEREGQRDQDQQHDHPYGAPKPPPKAETLHHCPQLEALKQKLKLLEEENDHLREEASHLDNLEDKEQMLILECVEQFSEASQQMAELSEVLVLRLEGYERQQKEITQLQAEITKLQQRCQSYGAQTEKLQQQLASEKGVHPESLRAGSHMQDYGSRPRERQEDGKSHRQRSSMPAGSVTHYGYSVPLDALPSFPETLAEELRTSLRKFITDPAYFMERCDTRCREERKKEQGTMPPPPVQDLKPPEDFEAPEELVPEEELGAIEEVGTAEDGPAEETEQASEETEAWEEVEPEVDEATRMNVVVSALEASGLGPSHLDMKYVLQQLSNWQDAHSKRQQKQKVVPKGECSRRGHPPASGTSYRSSTL

This assay covers variants of B1. The note with it: with 1433z_human YWHAZ.
Regarding MRPKDQVQSSAGDGTGSGDPATGTPTTQPAADPAPEPSAEPKPAPAQGTGSGQKSGSRTKTGGSFCRSRIRGDSDAPWTRYIFQGPYGPRATGLGTGRAEGIWKTPAAYIGRRPGVSGPERAAFIRELQEALCPNPLPRKKITEDDIKVMLYLLEEKERDLNTAARIGQSLVKQNSVLMEENNKLETMLGSAREEILHLRKQVNLRDDLLQLYSDSDDDEEDEEDEEEEEGEEEEREGQRDQDQQHDHPYGAPKPPPKAETLHHCPQLEALKQKLKLLEEENDHLREEASHLDNLEDKEQMLILECVEQFSEASQQMAELSEVLVLRLEGYERQQKEITQLQAEITKLQQRCQSYGAQTEKLQQQLASEKGVHPESLRAGSHMQDYGSRPRERQEDGKSHRQRSSMPAGSVTHYGYSVPLDALPSFPETLAEELRTSLRKFITDPAYFMERCDTRCREERKKEQGTMPPPPVQDLKPPEDFEAPEELVPEEELGAIEEVGTAEDGPAEETEQASEETEAWEEVEPEVDEATRMNVVVSALEASGLGPSHLDMKYVLQQLSNWQDAHSKRQQKQKVVPKGECSRRGHPPASGTSYRSSAL [T598A], the “effect of a mutation on the interaction” value is given as “disrupting interaction”.

Values taken from IntAct's records for PubMed 17166838.
